Source: patent publication US20240101684A1 (AIMED BIO, published 2024)
One block for each binder: values may come before it.

How the values were obtained:
[1] = biological target: T1, FGFR3 Ig domain II with Fc tag (UniProt P22607 151-244); assay: ELISA on Fc-tagged FGFR3 constructs (FGFR3 domain mapping), bar Domain#2
T1 construct: domain: FGFR3 Ig domain II; Recombinant domain made in mammalian cells; also called domain No. 2
T1 sequence: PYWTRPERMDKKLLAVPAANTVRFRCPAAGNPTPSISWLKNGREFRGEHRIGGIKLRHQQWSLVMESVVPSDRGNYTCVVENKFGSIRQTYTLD
Method: (§1) Affinity ELISA was performed to determine the binding ability of the produced antibody (IgG) to the FGFR3 antigen. A 96-well plate (4° C., overnight) was coated with […] of FGFR3 antigen and blocked with 3% skim milk (PBS) (room temperature, 1 hour). Then, the plate was treated with previously serially diluted antibody samples in duplicate and triplicate, and reacted at room temperature for 1 hour. Then, the result was washed with PBST 2 to 3 times, treated with the HRP-conjugated anti-human Fab antibody diluted in skim milk (room temperature, 1 hour), and washed again with PBST, and a color reaction (TMB substrate) was performed. Then, O.D. was measured at 450 nm.
(§2) FGFR3 is composed of three domains, so each domain (FGFR3 Ig domain I, domain II, domain III) is attached with an Fc tag to analyze the FGFR3-binding domain of the discovered antibody, and produced and purified through a mammalian cell protein expression system (FIG. 9C). Analysis of the binding ability of the antibody to the purified domain was performed in the same manner as the ELISA described above. 1 μg/ml of an antigen was coated and treated with the antibody to induce a TMB color reaction. […] However, the epitope of the comparative antibody is included in domain No. 2, which was conducted according to the present invention. […]

Domain#3 = biological target: T2, Domain#3 (human, UniProt P22607); assay: ELISA on Fc-tagged FGFR3 constructs (FGFR3 domain mapping), bar Domain#3
T2 construct: single domain fused to human IgG1 Fc; also called FGFR3 Domain 3; FGFR3 Ig domain III with Fc tag
T2 sequence (Fc fusion chain): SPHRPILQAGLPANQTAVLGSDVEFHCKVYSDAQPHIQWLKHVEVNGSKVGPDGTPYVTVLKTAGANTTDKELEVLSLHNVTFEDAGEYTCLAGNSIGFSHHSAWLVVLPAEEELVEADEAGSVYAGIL
Method: as §1, §2

[2] = biological target: FGFR3(-TACC3) on FGFR3-TACC3 overexpressing brain tumor patient-derived cells (GBM15-682T) (human (brain tumor patient-derived …, UniProt P22607 23-806)); assay: cell-based or functional assay
[3] = biological target: T3, FGFR3 recombinant protein (isoform not given) (Homo sapiens (Human), UniProt P22607 23-375, limits assumed); assay: affinity ELISA on hFGFR3, lower left panel
T3 construct: also called FGFR3 antigen
T3 sequence: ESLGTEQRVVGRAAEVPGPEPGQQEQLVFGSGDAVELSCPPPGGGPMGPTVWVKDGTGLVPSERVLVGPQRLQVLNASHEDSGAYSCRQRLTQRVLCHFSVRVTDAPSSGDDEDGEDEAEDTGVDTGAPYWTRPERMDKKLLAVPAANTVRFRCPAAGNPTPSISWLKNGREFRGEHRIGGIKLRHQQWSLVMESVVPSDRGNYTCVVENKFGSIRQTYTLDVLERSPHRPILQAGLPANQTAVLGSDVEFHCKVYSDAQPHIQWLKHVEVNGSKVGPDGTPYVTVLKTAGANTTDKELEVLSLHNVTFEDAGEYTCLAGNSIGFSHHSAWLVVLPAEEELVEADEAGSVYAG
Method: as §1
The antigen affinity of the synthesized ADC sample (TOPOI-conjugated ADC) was determined by ELISA and the determination was performed in the same manner as the affinity ELISA performed in the present invention. […] In addition, the high purity physical properties of the prepared ADC were identified through SEC-HPLC analysis.

[4] = biological target: T4, human FGFR3 IIIb recombinant protein (1264-FR-050, R&D) (human, UniProt P22607-2 23-377); assay: direct-binding ELISA on rhFGFR3-IIIb, 2' screening, plate 1 (row head prints IC50)
T4 construct: Bought recombinant antigen; also called rhFGFR3-IIIb; FGFR3-IIIb (Human)
T4 sequence (looked up): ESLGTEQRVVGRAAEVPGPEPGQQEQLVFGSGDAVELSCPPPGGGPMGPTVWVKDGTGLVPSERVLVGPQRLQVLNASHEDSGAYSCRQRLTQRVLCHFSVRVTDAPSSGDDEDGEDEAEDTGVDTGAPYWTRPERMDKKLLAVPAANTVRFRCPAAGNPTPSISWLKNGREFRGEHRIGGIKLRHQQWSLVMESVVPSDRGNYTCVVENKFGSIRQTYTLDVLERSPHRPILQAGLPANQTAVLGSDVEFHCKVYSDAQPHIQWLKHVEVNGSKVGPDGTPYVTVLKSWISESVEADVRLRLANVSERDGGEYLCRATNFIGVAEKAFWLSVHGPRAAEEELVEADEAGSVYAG

[5] = biological target: T5, human FGFR3 IIIc recombinant protein (766-FR-050, R&D) (human, UniProt P22607 23-375); assay: SPR, table under the sensorgrams, column KD, row FGFR3-IIIc Human; unit inferred
T5 construct: Bought recombinant antigen; also called FGFR3-IIIc (Human)
T5 sequence (looked up): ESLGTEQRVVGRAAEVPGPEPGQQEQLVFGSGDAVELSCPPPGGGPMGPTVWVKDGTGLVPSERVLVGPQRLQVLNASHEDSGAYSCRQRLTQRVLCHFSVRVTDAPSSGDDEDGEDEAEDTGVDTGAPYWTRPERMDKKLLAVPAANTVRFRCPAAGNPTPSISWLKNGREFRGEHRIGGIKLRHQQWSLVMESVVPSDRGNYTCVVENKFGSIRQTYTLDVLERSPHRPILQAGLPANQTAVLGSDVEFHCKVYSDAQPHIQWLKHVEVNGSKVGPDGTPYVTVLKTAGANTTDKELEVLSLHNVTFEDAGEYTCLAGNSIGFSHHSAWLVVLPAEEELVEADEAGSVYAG

[6] = biological target: T4, human FGFR3 IIIb recombinant protein …; assay: SPR, table under the sensorgrams, column KD, row FGFR3-IIIb Human; unit inferred
[7] = biological target: T1, FGFR3 Ig domain II with Fc tag; assay: FGFR3 Domain ELISA, AMB302#1, bar Domain#2
Method: FGFR3 is composed of three domains, so each domain (FGFR3 Ig domain I, domain II, domain III) is attached with an Fc tag to analyze the FGFR3-binding domain of the discovered antibody, and produced and purified through a mammalian cell protein expression system (FIG. 9C). Analysis of the binding ability of the antibody to the purified domain was performed in the same manner as the ELISA described above. 1 μg/ml of an antigen was coated and treated with the antibody to induce a TMB color reaction. […] However, the epitope of the comparative antibody is included in domain No. 2, which was conducted according to the present invention. In addition, ligands of FGF1 and FGF9, and FGFR3 have been reported to bind to Ig domain II and domain III of FGFR3. Based on this, competition ELISA assay was conducted. […] This supports binding of F309 antibody to the aforementioned FGFR3 Ig domain I (FIG. 9A).
The epitope domain mapping performed above was also performed on the affinity matured antibody F309 #SSM236 (hereinafter referred to as AMB302 #1.2). […] The antibody was also found to have specific binding ability to human/cyno FGFR3 (FIG. 17).

[8] = biological target: T4, human FGFR3 IIIb recombinant protein …; assay: direct-binding ELISA on rhFGFR3-IIIb, 1' screening (row head prints IC50)
[9] = biological target: T6, monkey FGFR3 recombinant protein (90313-C02H, Sino Biological) (cynomolgus monkey, UniProt A0A2K5V1U5 23-376); assay: SPR, table under the sensorgrams, column KD, row FGFR3 Monkey; unit inferred
T6 construct: Bought recombinant antigen; also called cynomolgus monkey FGFR3; cyno FGFR3
T6 sequence: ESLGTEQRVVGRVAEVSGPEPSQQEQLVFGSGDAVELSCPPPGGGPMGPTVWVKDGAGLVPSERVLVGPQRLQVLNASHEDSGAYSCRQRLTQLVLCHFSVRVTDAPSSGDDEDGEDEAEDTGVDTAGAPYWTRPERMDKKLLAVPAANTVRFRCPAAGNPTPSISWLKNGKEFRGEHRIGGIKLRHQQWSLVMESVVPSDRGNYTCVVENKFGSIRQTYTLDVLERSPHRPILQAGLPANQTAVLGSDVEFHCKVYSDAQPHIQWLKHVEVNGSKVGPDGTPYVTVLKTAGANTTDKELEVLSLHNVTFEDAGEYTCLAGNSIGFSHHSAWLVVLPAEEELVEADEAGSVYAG

[10] = biological target: T4, human FGFR3 IIIb recombinant protein …; assay: direct-binding ELISA on rhFGFR3-IIIb, 2' screening, plate 2 (row head prints IC50); 2' screening, Plate2
[11] = biological target: T4, human FGFR3 IIIb recombinant protein …; assay: direct-binding ELISA on rhFGFR3-IIIb, 1' screening (row head prints IC50); 1' screening
[12] = biological target: T3, FGFR3 recombinant protein (isoform not …); assay: competition ELISA (FGFR3 - FGF1 interaction), blocked ligand FGF1
[13] = biological target: T4, human FGFR3 IIIb recombinant protein …; assay: SPR (Biacore), hFGFR3-iiib immobilised on the chip, antibody injected
Method: SPR analysis was performed to evaluate the binding ability of the produced antibody (IgG) to the FGFR3 subtype and subfamily. The measurement of SRP-based affinity of FGFR3 antibody candidates for the FGFR3 antigen was performed using a Biacore-T200 instrument. The same antigens as described with reference to ELISA binding capacity were directly immobilized on a CM5 biosensor chip by amine coupling to achieve approximately 300 RU. Two-fold serial dilutions were injected at a flow rate of […] at a concentration of approximately 20 nM for an association time of 180 seconds (25° C.) and then separated at the same flow rate for 180 seconds. The CM5 biosensor chip was regenerated by injecting 10 mM glycine-HCl as a buffer between each injection. Association and dissociation rates were calculated using a one-to-one Langmuir binding model. The equilibrium dissociation constant (KD) was calculated as a ratio Koff/Kon (FIG. 5, Table 6).

IC50 of ADC on patient-derived spheroid organoids [2]: ≤ 0.3 nM
EC50 (read off the curve) [3]: ~0.4 nM
B2: AMB302 #1.2-TOPOI (other)
VH: EVQLLESGGGLVQPGGSLRLSCAASGFTFSSYDMSWVRQAPGKGLEWVSGIYSGDGSIYYADSVKGRFTISRDNSKNTLYLQMNSLRAEDTAVYYCAKDGPMNEESRFDYWGQGTLVTVSS
VL: QSVLTQPPSASGTPGQRVTISCSGSSSNIGNNYVSWYQQLPGTAPKLLIYADSKRPSGVPDRFSGSKSGTSASLAISGLRSEDEADYYCASWDYSLSGYVFGGGTKLTVL
modifications: topoisomerase I inhibitor linker-payload on cysteines of the fully reduced antibody (positions not given); topoisomerase I inhibitor linker-payload on cysteines of the fully reduced antibody (positions not given), DAR of 6 or higher
notes: also called TOPOI-conjugated ADC; ADC-TOPOI

EC50 [11]: 2190 nM
B4: F309#SSM001 (antibody, V domains shown)
VH: EVQLLESGGGLVQPGGSLRLSCAASGFTFSSYDMSWVRQAPGKGLEWVSGIYSGDGSIYYADSVKGRFTISRDNSKNTLYLQMNSLRAEDTAVYYCAKDYPTNEMSRFDYWGQGTLVTVSS
VL: QSVLTQPPSASGTPGQRVTISCSGSSSNIGNNYVSWYQQLPGTAPKLLIYADSKRPSGVPDRFSGSKSGTSASLAISGLRSEDEADYYCASWDYSLSGYVFGGGTKLTVL

More lines, now with the values behind:

B1: FS306 (antibody, V domains shown)
VH: EVQLLESGGGLVQPGGSLRLSCAASRFTFSDIAMHWVRQAPGKGLEWVSTIYSSDSTYYNPSLKGRFTISRDNSKNTLYLQMNSLRAEDTAVYYCAKGVGYTTSSRFDYWGQGTLVTVSS
VL: EIVLTQGPGTLSLSPGERATLSCRASQSISSYLNWYQQKPGQAPRLLVYDASNRAAGIPDRFSGSGSGTDFTLTISRLEPEDFAVYYCQQYSSFPLTFGQGTKVEIK
notes: also called FS306 antibody; FS306 clone
binding result [1]: no binding
binding result (Domain#3): no binding

B3: F309 (antibody, V domains shown)
VH: EVQLLESGGGLVQPGGSLRLSCAASGFTFSSYDMSWVRQAPGKGLEWVSGIYSGDGSIYYADSVKGRFTISRDNSKNTLYLQMNSLRAEDTAVYYCAKDAPTNEMSRFDYWGQGTLVTVSS
VL: QSVLTQPPSASGTPGQRVTISCSGSSSNIGNNYVSWYQQLPGTAPKLLIYADSKRPSGVPDRFSGSKSGTSASLAISGLRSEDEADYYCASWDYSLSGYVFGGGTKLTVL
notes: also called F309 antibody; F309 clone
EC50 [4]: 80.4 nM
Kd [5]: 11.1 nM
Kd [6]: 10.4 nM
binding result [7]: no binding
EC50 [8]: 0.67 nM
Kd [9]: 32.8 nM
binding result (Domain#3): no binding
EC50 [10]: 67 nM

B5: B701 (Vofatamab, Rainier Therapeutics) (antibody, V domains shown)
VH: EVQLVESGGGLVQPGGSLRLSCAASGFTFTSTGISWVRQAPGKGLEWVGRIYPTSGSTNYADSVKGRFTISADTSKNTAYLQMNSLRAEDTAVYYCARTYGIYDLYVDYTEYVMDYWGQGTLVTVSS
VL: DIQMTQSPSSLSASVGDRVTITCRASQDVDTSLAWYKQKPGKAPKLLIYSASFLYSGVPSRFSGSGSGTDFTLTISSLQPEDFATYYCQQSTGHPQTFGQGTKVEIK
IC50 (read off the curve) [12]: ~3 nM
EC50 [8]: 0.417 nM

B6: FS313 (antibody, V domains shown)
VH: EVQLLESGGGLVQPGGSLRLSCAASGFTFSGYAMSWVRQAPGKGLEWVSGINWRGATTAYADSLKGRFTISRDNSKNTLYLQMNSLRAEDTAVYYCARSDYGLFDIWGQGTLVTVSS
VL: QSVLTQPPSASGAPGQRVTISCGGNNIGSKSVHWYQQLPGTAPKLLIYQDTKRPSGVPNRFSGSKSGTSASLAISGLRSEDEADYYCQSYDSRQLVFGGGTKLTVL
notes: also called FS313 IgG
binding result [13]: binds
